Data on two molecules can be found in US20080194020A1 (MEDICAL AND BIOLOGICAL LABORATORIES, published 2008).

T1: TAP1 (mouse (endogenous in mouse DC2.4 cells), UniProt P21958 1-724)
T1 construct: Endogenous protein in the cell lysate; also called TAP1/2
T1 sequence (looked up): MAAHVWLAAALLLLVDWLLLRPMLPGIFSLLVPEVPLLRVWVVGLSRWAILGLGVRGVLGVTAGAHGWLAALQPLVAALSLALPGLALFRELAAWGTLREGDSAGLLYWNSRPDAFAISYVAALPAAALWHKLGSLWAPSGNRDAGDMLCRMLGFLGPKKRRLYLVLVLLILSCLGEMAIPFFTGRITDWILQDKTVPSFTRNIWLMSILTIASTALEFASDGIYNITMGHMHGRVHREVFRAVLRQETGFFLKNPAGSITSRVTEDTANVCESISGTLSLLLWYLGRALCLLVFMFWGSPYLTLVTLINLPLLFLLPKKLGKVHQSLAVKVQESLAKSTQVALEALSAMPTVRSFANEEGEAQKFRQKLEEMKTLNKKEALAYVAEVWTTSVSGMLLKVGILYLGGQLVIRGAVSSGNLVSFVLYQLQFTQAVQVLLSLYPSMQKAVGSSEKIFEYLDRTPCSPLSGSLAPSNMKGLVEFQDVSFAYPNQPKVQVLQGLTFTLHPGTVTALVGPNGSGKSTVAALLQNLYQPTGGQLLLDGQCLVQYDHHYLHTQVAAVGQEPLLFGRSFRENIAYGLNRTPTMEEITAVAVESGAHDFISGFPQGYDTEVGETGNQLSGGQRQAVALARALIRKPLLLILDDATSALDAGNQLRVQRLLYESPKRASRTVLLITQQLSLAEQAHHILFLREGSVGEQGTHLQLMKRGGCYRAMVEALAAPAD

T2: TAP2 (mouse (endogenous in mouse DC2.4 cells), UniProt P36371 1-702)
T2 construct: Endogenous protein in the cell lysate; also called TAP1/2
T2 sequence (looked up): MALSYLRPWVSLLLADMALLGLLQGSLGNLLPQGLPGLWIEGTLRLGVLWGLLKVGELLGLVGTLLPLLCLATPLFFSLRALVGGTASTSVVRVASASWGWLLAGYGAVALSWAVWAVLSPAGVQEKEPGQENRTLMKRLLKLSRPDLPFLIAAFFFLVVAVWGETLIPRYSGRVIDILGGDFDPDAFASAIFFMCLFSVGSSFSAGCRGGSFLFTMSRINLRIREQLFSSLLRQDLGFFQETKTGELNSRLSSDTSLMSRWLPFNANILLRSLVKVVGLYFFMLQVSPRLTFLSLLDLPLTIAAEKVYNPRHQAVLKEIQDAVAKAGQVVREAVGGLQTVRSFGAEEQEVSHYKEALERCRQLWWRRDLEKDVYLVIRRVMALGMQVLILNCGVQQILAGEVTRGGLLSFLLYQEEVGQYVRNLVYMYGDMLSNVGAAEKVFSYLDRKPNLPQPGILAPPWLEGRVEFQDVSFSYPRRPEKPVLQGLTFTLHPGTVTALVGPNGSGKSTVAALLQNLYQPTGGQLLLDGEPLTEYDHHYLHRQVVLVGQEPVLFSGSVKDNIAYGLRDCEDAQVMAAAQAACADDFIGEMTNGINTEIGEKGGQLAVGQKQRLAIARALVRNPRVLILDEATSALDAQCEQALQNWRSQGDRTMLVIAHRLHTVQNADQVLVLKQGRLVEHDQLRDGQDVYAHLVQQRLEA

B1: biotin-labeled chicken ovalbumin (bOVA) (other, UniProt P01012 2-386, looked up)
chain: GSIGAASMEFCFDVFKELKVHHANENIFYCPIAIMSALAMVYLGAKDSTRTQINKVVRFDKLPGFGDSIEAQCGTSVNVHSSLRDILNQITKPNDVYSFSLASRLYAEERYPILPEYLQCVKELYRGGLEPINFQTAADQARELINSWVESQTNGIIRNVLQPSSVDSQTAMVLVNAIVFKGLWEKAFKDEDTQAMPFRVTEQESKPVQMMYQIGLFRVASMASEKMKILELPFASGTMSMLVLLPDEVSGLEQLESIINFEKLTEWTSSNVMEERKIKVYLPRMKMEEKYNLTSVLMAMGITDVFSSSANLSGISSAESLKISQAVHAAHAEINEAGREVVGSAEAGVDAASVSEEFRADHPFLFCIKHIATNAVLFFGRCVSP
modifications: biotin-labeled (sites not given)
B2: CHIP, an E3-ubiquitin ligase (enzyme, mouse (endogenous in mouse DC2.4 cells), UniProt Q9WUD1 1-304, looked up)
chain: MKGKEEKEGGARLGTGGGGSPDKSPSAQELKEQGNRLFVGRKYPEAAACYGRAITRNPLVAVYYTNRALCYLKMQQPEQALADCRRALELDGQSVKAHFFLGQCQLEMESYDEAIANLQRAYSLAKEQRLNFGDDIPSALRIAKKKRWNSIEERRIHQESELHSYLTRLIAAERERELEECQRNHEGHEDDGHIRAQQACIEAKHDKYMADMDELFSQVDEKRKKRDIPDYLCGKISFELMREPCITPSGITYDRKDIEEHLQRVGHFDPVTRSPLTQEQLIPNLAMKEVIDAFISENGWVEDY

Assay [1] has as its target T1, TAP1. The assay can be described thus: co-immunoprecipitation with anti-TAP1 from DC2.4 lysate, blot with SA-HRP. The method, then: (§1) DC2.4 cells were incubated with bOVA and subjected to co-immunoprecipitation with anti-Sec61α. bOVA was added at 2.5 mg mL⁻¹ to cell lysates before immunoprecipitation (the two left-hand lanes in each panel).
(§2) 2×10⁷ DC2.4 or BMDC cells were cultured for four hours in a medium containing 10 μM MG-132 in the presence of bOVA at 250 μg mL⁻¹. Cells were lysed in 20 mM HEPES pH7.6 containing 1% digitonin and protease inhibitors to collect biotin-labeled samples. The samples were cleared of impurities in advance using protein G sepharose (Amersham Pharmacia Biotech), and after incubation with antibodies for precipitation (anti-Sec61β, anti Sec61α, anti-VCP, anti-BiP, anti-PDI, anti-calreticulin, anti-TAP1, and anti-TAP2), the immunoprecipitates were collected using protein G. When chicken anti-CHIP antibody was used, immunoprecipitates were collected using a rabbit anti-IgY column (a person, MBL). The precipitated samples were analyzed by SDS-PAGE and Western blotting.

Assay [2] has as its target T2, TAP2. The assay can be described thus: co-immunoprecipitation with anti-TAP2 from DC2.4 lysate, blot with SA-HRP. The method, then: as §1, §2
Assay [3] concerns the target B1. Kind of assay: cell-based or functional assay.

Take B1: the binding result in assay [1] and in assay [2] was “no binding” in each case.

Take B2: in assay [3], the “polyubiquitination of bOVA in CHIP-knocked-down DC2.4 cells relative to parental cells” value was 34%.
